From paper PMC12540712

Target: And-1 HMG domain, 984-1129 (UniProt O75717)
Assay: GST-HMG pull-down of SepB, immunoblot
Conditions: reference: wild-type SepB; sites T826

## And-1 SepB domain, 330-984 (from UniProt O75717) T826A SepB
  binding against the reference: stronger
